Laboratory results reported in patent US20240279333A1 (SYSTIMMUNE, published 2024).

B1: SI-35E18 (460C3-L1H1-scFv x PL230C6-Fab x 323H7-H4L1-scFv x 284A10-H1L1-scFv) (antibody, human IgG1, kappa)
heavy: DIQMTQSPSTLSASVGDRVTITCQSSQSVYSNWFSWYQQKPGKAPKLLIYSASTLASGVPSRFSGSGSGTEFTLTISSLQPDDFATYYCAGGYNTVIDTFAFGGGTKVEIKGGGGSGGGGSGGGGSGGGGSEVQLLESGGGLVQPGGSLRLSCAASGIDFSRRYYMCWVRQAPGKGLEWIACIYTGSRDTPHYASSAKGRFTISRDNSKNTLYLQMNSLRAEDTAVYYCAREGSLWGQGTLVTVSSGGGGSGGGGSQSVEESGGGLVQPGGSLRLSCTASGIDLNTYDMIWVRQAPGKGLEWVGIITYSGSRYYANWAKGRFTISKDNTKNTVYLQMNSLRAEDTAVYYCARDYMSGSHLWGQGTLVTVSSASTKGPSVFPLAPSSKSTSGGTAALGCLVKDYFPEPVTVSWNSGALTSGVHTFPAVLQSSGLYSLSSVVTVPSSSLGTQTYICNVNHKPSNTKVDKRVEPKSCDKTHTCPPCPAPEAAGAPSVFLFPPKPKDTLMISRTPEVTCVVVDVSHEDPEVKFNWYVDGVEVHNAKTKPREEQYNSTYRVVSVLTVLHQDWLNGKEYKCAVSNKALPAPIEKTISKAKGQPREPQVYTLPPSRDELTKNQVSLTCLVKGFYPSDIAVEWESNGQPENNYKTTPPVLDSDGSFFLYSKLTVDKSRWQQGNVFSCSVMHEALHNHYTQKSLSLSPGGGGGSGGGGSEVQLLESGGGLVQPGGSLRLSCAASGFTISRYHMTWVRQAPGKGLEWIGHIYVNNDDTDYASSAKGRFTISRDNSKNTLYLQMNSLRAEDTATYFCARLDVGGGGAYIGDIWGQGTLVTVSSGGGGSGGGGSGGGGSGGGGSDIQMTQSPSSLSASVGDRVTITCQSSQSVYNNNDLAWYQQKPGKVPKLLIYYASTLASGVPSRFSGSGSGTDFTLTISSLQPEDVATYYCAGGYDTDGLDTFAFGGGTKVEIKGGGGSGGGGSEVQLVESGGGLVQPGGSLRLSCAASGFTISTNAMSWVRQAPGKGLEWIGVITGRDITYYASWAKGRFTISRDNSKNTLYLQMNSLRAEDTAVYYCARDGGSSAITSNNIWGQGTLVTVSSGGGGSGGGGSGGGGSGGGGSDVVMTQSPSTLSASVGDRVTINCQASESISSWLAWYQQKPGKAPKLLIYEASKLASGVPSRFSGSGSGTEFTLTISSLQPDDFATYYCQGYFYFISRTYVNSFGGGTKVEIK
light: AYDMTQSPSSVSASVGDRVTIKCQASEDIYSFLAWYQQKPGKAPKLLIHSASSLASGVPSRFSGSGSGTDFTLTISSLQPEDFATYYCQQGYGKNNVDNAFGGGTKVEIKRTVAAPSVFIFPPSDEQLKSGTASVVCLLNNFYPREAKVQWKVDNALQSGNSQESVTEQDSKDSTYSLSSTLTLSKADYEKHKVYACEVTHQGLSSPVTKSFNRGEC
notes: Tetra-specific antibody, symmetric dimer
B2: SI-35E24 (460C3 x PL230C6 x 330F11 x 284A10) (antibody, human IgG1, kappa)
heavy: not shown
light: B1 light
notes: Tetra-specific antibody, symmetric dimer; also called SI-3524
B3: SI-35E26 (466F6 x PL230C6 x 330F11 x 284A10) (antibody, human IgG1, kappa)
heavy: not shown
light: B1 light
notes: Tetra-specific antibody, symmetric dimer; also called '26' in 'SI-3524, 25, and 26'
B4: SI-35E25 (420H5 x PL230C6 x 330F11 x 284A10) (antibody, human IgG1, kappa)
heavy: not shown
light: B1 light
notes: Tetra-specific antibody, symmetric dimer; also called '25' in 'SI-3524, 25, and 26'
B5: SI-39E23 (PL230 x 806 x 420H5 x 284A10) (antibody)
heavy: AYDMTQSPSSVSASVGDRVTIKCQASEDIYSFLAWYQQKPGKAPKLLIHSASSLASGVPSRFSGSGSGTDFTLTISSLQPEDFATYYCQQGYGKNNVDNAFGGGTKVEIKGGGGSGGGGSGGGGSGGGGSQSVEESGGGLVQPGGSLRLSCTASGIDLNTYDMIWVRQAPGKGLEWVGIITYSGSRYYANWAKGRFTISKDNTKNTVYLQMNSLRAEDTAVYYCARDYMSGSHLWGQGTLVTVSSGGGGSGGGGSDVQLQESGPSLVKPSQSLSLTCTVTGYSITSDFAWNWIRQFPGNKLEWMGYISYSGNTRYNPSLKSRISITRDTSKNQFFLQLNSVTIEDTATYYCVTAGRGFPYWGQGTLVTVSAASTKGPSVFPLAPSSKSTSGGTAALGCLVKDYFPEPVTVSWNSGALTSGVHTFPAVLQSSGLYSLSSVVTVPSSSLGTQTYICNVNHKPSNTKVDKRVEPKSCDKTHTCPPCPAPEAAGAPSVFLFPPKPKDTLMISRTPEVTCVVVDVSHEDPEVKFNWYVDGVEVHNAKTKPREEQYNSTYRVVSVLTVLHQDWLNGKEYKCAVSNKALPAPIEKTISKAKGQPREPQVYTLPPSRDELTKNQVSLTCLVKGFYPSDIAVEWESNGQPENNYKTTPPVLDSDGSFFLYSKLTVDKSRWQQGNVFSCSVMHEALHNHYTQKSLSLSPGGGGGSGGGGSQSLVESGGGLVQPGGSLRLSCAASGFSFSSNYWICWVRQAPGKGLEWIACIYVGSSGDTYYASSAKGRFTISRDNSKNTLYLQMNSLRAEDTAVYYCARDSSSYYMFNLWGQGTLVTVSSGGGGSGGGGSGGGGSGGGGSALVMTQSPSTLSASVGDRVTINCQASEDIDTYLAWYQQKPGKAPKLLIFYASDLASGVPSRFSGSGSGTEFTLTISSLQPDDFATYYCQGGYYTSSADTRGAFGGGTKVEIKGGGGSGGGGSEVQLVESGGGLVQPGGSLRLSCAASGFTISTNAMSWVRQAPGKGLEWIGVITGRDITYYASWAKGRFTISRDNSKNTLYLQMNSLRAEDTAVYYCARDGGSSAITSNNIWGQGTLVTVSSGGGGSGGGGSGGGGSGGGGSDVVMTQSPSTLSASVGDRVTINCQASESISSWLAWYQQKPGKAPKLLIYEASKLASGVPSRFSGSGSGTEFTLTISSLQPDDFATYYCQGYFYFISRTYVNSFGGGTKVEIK
light: DILMTQSPSSMSVSLGDTVSITCHSSQDINSNIGWLQQRPGKSFKGLIYHGTNLDDEVPSRFSGSGSGADYSLTISSLESEDFADYYCVQYAQFPWTFGGGTKLEIKRTVAAPSVFIFPPSDEQLKSGTASVVCLLNNFYPREAKVQWKVDNALQSGNSQESVTEQDSKDSTYSLSSTLTLSKADYEKHKVYACEVTHQGLSSPVTKSFNRGEC
notes: as for B1
B6: SI-39E18 (284A10 x 806 x PL221 x 420H5) (antibody)
heavy: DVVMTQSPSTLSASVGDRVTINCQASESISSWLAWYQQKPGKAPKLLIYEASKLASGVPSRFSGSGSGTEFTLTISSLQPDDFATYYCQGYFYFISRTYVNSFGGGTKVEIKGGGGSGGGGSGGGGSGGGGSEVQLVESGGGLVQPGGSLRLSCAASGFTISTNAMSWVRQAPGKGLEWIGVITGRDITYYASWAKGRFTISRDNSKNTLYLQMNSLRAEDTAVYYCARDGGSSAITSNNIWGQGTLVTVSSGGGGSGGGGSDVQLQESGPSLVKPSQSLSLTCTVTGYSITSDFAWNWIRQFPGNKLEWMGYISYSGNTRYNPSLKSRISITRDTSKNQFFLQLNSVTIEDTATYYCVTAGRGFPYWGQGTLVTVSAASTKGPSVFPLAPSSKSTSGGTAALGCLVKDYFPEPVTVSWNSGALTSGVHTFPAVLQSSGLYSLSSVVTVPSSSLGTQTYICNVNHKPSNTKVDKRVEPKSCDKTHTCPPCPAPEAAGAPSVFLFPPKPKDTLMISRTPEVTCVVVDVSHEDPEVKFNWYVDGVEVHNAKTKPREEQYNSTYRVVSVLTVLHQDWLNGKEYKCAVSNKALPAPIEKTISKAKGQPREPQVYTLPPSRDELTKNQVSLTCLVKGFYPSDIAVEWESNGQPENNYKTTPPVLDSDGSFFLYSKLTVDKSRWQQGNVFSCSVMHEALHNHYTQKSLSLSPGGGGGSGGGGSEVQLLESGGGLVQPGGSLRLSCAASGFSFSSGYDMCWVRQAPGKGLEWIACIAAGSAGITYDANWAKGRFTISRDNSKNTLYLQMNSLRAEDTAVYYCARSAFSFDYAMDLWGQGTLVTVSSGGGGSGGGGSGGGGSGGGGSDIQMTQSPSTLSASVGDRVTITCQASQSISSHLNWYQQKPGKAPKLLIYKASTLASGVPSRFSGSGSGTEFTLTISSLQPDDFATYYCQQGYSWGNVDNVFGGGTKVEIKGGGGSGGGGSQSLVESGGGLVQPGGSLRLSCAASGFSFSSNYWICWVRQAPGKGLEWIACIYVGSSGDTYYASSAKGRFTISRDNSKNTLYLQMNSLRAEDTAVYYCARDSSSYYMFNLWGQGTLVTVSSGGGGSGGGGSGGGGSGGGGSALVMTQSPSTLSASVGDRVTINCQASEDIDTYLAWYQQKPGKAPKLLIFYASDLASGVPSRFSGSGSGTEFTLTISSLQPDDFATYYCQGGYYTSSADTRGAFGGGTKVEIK
light: B5 light
notes: as for B1
B7: SI-39E4 (PL230 x 806 x 284A10 x 420H5) (antibody)
heavy: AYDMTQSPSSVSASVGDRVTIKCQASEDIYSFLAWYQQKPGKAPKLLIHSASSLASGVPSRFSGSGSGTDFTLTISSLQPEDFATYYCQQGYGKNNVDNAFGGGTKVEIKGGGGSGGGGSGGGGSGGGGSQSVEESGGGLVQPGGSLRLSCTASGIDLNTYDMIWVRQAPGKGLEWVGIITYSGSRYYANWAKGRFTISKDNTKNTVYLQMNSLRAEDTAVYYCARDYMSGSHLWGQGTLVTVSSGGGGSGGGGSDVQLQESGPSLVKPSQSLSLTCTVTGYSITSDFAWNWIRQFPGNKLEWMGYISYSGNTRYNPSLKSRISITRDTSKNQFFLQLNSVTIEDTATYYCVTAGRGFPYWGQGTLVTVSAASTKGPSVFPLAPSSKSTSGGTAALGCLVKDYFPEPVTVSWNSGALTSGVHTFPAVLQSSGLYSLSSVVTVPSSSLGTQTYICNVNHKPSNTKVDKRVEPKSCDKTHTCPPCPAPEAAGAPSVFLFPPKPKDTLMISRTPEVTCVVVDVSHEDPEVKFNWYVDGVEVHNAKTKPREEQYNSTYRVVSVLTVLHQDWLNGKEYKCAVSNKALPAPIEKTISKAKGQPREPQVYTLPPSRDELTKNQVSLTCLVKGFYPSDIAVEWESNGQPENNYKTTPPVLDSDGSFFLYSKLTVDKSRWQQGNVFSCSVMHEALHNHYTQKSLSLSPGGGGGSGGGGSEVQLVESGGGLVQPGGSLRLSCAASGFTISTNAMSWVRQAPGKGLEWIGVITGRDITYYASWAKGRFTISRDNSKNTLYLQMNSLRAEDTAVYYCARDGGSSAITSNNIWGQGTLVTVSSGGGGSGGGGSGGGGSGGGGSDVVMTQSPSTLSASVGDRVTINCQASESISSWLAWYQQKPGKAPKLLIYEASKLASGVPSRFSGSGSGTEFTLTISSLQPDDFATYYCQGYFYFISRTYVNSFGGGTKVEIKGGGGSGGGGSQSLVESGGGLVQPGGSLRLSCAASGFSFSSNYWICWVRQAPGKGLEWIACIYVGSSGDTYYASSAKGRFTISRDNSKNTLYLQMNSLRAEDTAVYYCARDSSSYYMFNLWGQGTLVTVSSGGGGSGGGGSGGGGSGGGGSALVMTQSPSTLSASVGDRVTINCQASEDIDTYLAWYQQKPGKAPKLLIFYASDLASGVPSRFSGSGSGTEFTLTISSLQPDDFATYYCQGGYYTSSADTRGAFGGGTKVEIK
light: B5 light
notes: Tetra-specific antibody, symmetric dimer; also called SI-39E04; 39 E04
B8: SI-39E10 (420H5 x PL230 x 806 x 284A10) (antibody, human IgG1, kappa)
heavy: not shown
light: B1 light
notes: as for B1
B9: SI-39E13 (420H5 x PL230 x 284A10 x 806) (antibody, human IgG1, kappa)
heavy: not shown
light: B1 light
notes: as for B1
B10: SI-39E29 (806 x 284A10 x PL221 x 420H5) (antibody)
heavy: not shown
light: DVVMTQSPSTLSASVGDRVTINCQASESISSWLAWYQQKPGKAPKLLIYEASKLASGVPSRFSGSGSGTEFTLTISSLQPDDFATYYCQGYFYFISRTYVNSFGGGTKVEIKRTVAAPSVFIFPPSDEQLKSGTASVVCLLNNFYPREAKVQWKVDNALQSGNSQESVTEQDSKDSTYSLSSTLTLSKADYEKHKVYACEVTHQGLSSPVTKSFNRGEC
notes: as for B1

What follows are binders tested against T1, full length human ROR1 stably expressed on CHO cells (human, UniProt Q01973 30-937) (assay: FACS on CHO cells stably expressing full length human ROR1, PE goat anti-human IgG Fc secondary; y axis without label).
T1 construct: whole, on cells; also called ROR1-CHO cells; human ROR1 transfected CHO cells

Row | binding result | Binder
1 | binds | B1
2 | no binding (tested: 10 nM) | B2
3 | no binding (tested: 10 nM) | B3
4 | no binding (tested: 10 nM) | B4

Each binder was assayed against 4-1BB protein antigen (immobilized on the sensor) (UniProt Q07011 24-186, limits assumed) (assay: Octet RED96, antigen immobilized).

Row | Kd | Response | koff | kon | Binder
5 | 0.696 nM | 2.02 | 0.000141 s⁻¹ | 203000 M⁻¹ s⁻¹ | B5
6 | 0.393 nM | 2.02 | 9.24e-05 s⁻¹ | 235000 M⁻¹ s⁻¹ | B6
7 | 0.354 nM | 2.42 | 5.91e-05 s⁻¹ | 167000 M⁻¹ s⁻¹ | B7
8 | 0.0356 nM | 2.63 | 7.43e-06 s⁻¹ | 209000 M⁻¹ s⁻¹ | B8
9 | 0.117 nM | 2.47 | 2.65e-05 s⁻¹ | 227000 M⁻¹ s⁻¹ | B9

The binders below were run against T2, CD3 e/d antigen (immobilized on the sensor) (UniProt P07766 23-126; P04234 22-105) (assay: Octet RED96, antigen immobilized).
T2 construct: 'e/d' read as epsilon/delta; construct not described

Row | Kd | Response | koff | kon | Binder
10 | 0.207 nM | 2.65 | 2.54e-05 s⁻¹ | 123000 M⁻¹ s⁻¹ | B5
11 | 0.632 nM | 1.76 | 0.00011 s⁻¹ | 174000 M⁻¹ s⁻¹ | B6
12 | < 0.001 nM | 1.97 | < 1e-07 s⁻¹ | 86100 M⁻¹ s⁻¹ | B7
13 | 0.475 nM | 1.85 | 7.86e-05 s⁻¹ | 166000 M⁻¹ s⁻¹ | B10
14 | < 0.001 nM | 2.24 | < 1e-07 s⁻¹ | 110000 M⁻¹ s⁻¹ | B8
15 | < 0.001 nM | 1.8 | < 1e-07 s⁻¹ | 104000 M⁻¹ s⁻¹ | B9

What follows are binders tested against PD-L1 protein antigen (immobilized on the sensor) (UniProt Q9NZQ7 19-238, limits assumed) (assay: Octet RED96, antigen immobilized).

Row | Kd | Response | koff | kon | Binder
16 | 0.0402 nM | 1.9 | 1.94e-05 s⁻¹ | 483000 M⁻¹ s⁻¹ | B5
17 | 0.168 nM | 1.83 | 6.37e-05 s⁻¹ | 379000 M⁻¹ s⁻¹ | B6
18 | 0.0723 nM | 2.15 | 2.41e-05 s⁻¹ | 333000 M⁻¹ s⁻¹ | B7
19 | 0.283 nM | 1.72 | 0.000106 s⁻¹ | 376000 M⁻¹ s⁻¹ | B10
20 | 0.0685 nM | 1.94 | 2.61e-05 s⁻¹ | 381000 M⁻¹ s⁻¹ | B8
21 | 0.0801 nM | 1.92 | 3.32e-05 s⁻¹ | 415000 M⁻¹ s⁻¹ | B9

What follows are binders tested against T3, human 4-1BB on transfected CHO cells (human, UniProt Q07011 24-255) (assay: FACS on human 4-1BB transfected CHO cells, PE goat anti-human IgG Fc secondary; y axis without label).
T3 construct: whole, on cells; also called 41BB expressing CHO cells; human 41BB transfected CHO cells

Row | binding result | Binder
22 | binds | B1

Each binder was assayed against T4, human PD-L1 on transfected CHO cells (human, UniProt Q9NZQ7 19-290) (assay: FACS on human PD-L1 transfected CHO cells, PE goat anti-human IgG Fc secondary; y axis without label).
T4 construct: whole, on cells; also called PD-L1 expressing CHO cells; human PD-L1 transfected CHO cells

Row | binding result | Binder
23 | binds | B1
